Legend:
HLA-B*51:01 [1] = assay: IEDB peptide-MHC binding, purified MHC/direct/fluorescence; filed as Kd, often an IC50 or EC50 that approximates it; ≥ and ≤ were set here for values at or beyond the usual limits of such assays
HLA-B*07:02 [2] = assay: as above
HLA-B*39:01 = assay: as above; conditions: source organism: Influenza A virus H3N2
HLA-B*08:01 [3] = assay: IEDB peptide-MHC binding, purified MHC/competitive/radioactivity; filed as Kd, often an IC50 or EC50 that approximates it; ≥ and ≤ were set here for values at or beyond the usual limits of such assays
HLA-A*33:01 = assay: as above
HLA-B*07:02 [4] = assay: as above
HLA-A*02:02 = assay: as above
HLA-A*68:02 [5] = assay: as above
HLA-B*35:01 = assay: as above
HLA-A*02:06 = assay: as above
HLA-A*01:01 [6] = assay: as above; conditions: source organism: Hepacivirus hominis
HLA-A*31:01 [7] = assay: as above
HLA-B*53:01 = assay: as above
HLA-A*03:01 [8] = assay: as above
HLA-A*02:01 [9] = assay: as above
HLA-A*11:01 [10] = assay: as above
HLA-B*54:01 = assay: as above
HLA-B*51:01 [11] = assay: as above
HLA-A*02:03 = assay: as above
HLA-A*68:01 = assay: as above
HLA-B*08:01 [12] = assay: IEDB peptide-MHC binding, purified MHC/direct/fluorescence; filed as Kd, often an IC50 or EC50 that approximates it; ≥ and ≤ were set here for values at or beyond the usual limits of such assays
HLA-B*15:01 = assay: as above; conditions: source organism: Bacillus licheniformis
HLA-A*26:01 [13] = assay: as above; conditions: source organism: Bacillus licheniformis
HLA-A*69:01 = assay: as above
HLA-A*01:01 [14] = assay: as above
HLA-B*40:01 = assay: as above
HLA-A*31:01 [15] = assay: as above
HLA-B*27:05 = assay: as above
HLA-A*03:01 [16] = assay: as above
HLA-A*02:01 [17] = assay: as above
HLA-A*11:01 [18] = assay: as above
HLA-B*58:01 = assay: as above
HLA-B*15:17 = assay: IEDB peptide-MHC binding, purified MHC/competitive/fluorescence; filed as Kd, often an IC50 or EC50 that approximates it; ≥ and ≤ were set here for values at or beyond the usual limits of such assays
HLA-A*29:02 = assay: IEDB peptide-MHC binding, purified MHC/direct/fluorescence; filed as Kd, often an IC50 or EC50 that approximates it; ≥ and ≤ were set here for values at or beyond the usual limits of such assays
HLA-B*48:01 = assay: as above; conditions: source organism: Corynebacterium diphtheriae
HLA-B*57:01 = assay: as above
HLA-B*46:01 = assay: as above
HLA-B*44:02 = assay: as above; conditions: source organism: Corynebacterium diphtheriae
HLA-A*68:02 [19] = assay: as above; conditions: source organism: Convict Creek 107 virus
HLA-B*18:01 = assay: as above; conditions: source organism: Orthohantavirus andesense
HLA-A*24:03 = assay: as above; conditions: source organism: Convict Creek 107 virus
HLA-A*26:01 [20] = assay: IEDB peptide-MHC binding, purified MHC/competitive/fluorescence; filed as Kd, often an IC50 or EC50 that approximates it; ≥ and ≤ were set here for values at or beyond the usual limits of such assays; conditions: source organism: Orthohantavirus sinnombreense
HLA-B*27:03 = assay: as above; conditions: source organism: Orthohantavirus sinnombreense
HLA-B*51:01 [21] = assay: as above; conditions: source organism: Orthohantavirus sinnombreense
[22] = source organism: Giardia lamblia ATCC 50803
[23] = source organism: Hepacivirus hominis
[24] = source organism: Vaccinia virus WR
[25] = source organism: Bacillus licheniformis
[26] = source organism: Corynebacterium diphtheriae
[27] = source organism: Orthohantavirus andesense

AVSRGTAKL
Kd (HLA-B*51:01 [1]; source organism: Alkhumra hemorrhagic fever virus): ≥ 20 µM

EALAMCLPY
Kd (HLA-B*07:02 [2]; [22]): 5.2 µM | Kd (HLA-B*51:01 [1]; [22]): ≥ 20 µM

FHGAKEIAL
Kd (HLA-B*39:01): 0.175 µM

HSKRKCDEL
Kd (HLA-B*08:01 [3]; [23]): ≥ 77.6 µM | Kd (HLA-A*33:01; [23]): ≥ 77.7 µM | Kd (HLA-B*07:02 [4]; [23]): ≥ 59.8 µM | Kd (HLA-A*02:02; [23]): ≥ 43.4 µM | Kd (HLA-A*68:02 [5]; [23]): ≥ 69.8 µM | Kd (HLA-B*35:01; [23]): ≥ 77.4 µM | Kd (HLA-A*02:06; [23]): 1.15 µM | Kd (HLA-A*01:01 [6]): ≥ 59.8 µM | Kd (HLA-A*31:01 [7]; [23]): ≥ 77.9 µM | Kd (HLA-B*53:01; [23]): ≥ 30.1 µM | Kd (HLA-A*03:01 [8]; [23]): ≥ 78 µM | Kd (HLA-A*02:01 [9]; [23]): ≥ 33.9 µM | Kd (HLA-A*11:01 [10]; [23]): ≥ 77.9 µM | Kd (HLA-B*54:01; [23]): ≥ 36.1 µM | Kd (HLA-B*51:01 [11]; [23]): ≥ 46.5 µM | Kd (HLA-A*02:03; [23]): 12.4 µM | Kd (HLA-A*68:01; [23]): ≥ 77.7 µM

IVLFQRFLR
Kd (HLA-A*33:01; [24]): 0.00238 µM | Kd (HLA-B*07:02 [4]; [24]): ≥ 77.5 µM | Kd (HLA-A*02:02; [24]): ≥ 54.2 µM | Kd (HLA-A*68:02 [5]; [24]): ≥ 51.9 µM | Kd (HLA-B*35:01; [24]): ≥ 21.9 µM | Kd (HLA-A*02:06; [24]): ≥ 47.7 µM | Kd (HLA-A*31:01 [7]; [24]): 0.000185 µM | Kd (HLA-B*53:01; [24]): ≥ 78.2 µM | Kd (HLA-A*03:01 [8]; [24]): 0.242 µM | Kd (HLA-A*02:01 [9]; [24]): ≥ 78.1 µM | Kd (HLA-A*11:01 [10]; [24]): 0.0134 µM | Kd (HLA-B*54:01; [24]): ≥ 78.1 µM | Kd (HLA-B*51:01 [11]; [24]): ≥ 77.5 µM | Kd (HLA-A*02:03; [24]): ≥ 48.1 µM | Kd (HLA-A*68:01; [24]): 0.00124 µM

KTIECSKEL
Kd (HLA-B*08:01 [12]; [25]): ≥ 20 µM | Kd (HLA-B*15:01): 0.468 µM | Kd (HLA-B*07:02 [2]; [25]): ≥ 20 µM | Kd (HLA-A*26:01 [13]): ≥ 20 µM | Kd (HLA-A*69:01; [25]): ≥ 20 µM | Kd (HLA-A*01:01 [14]; [25]): ≥ 20 µM | Kd (HLA-B*40:01; [25]): ≥ 20 µM | Kd (HLA-A*31:01 [15]; [25]): 5.6 µM | Kd (HLA-B*27:05; [25]): ≥ 20 µM | Kd (HLA-A*03:01 [16]; [25]): ≥ 20 µM | Kd (HLA-A*02:01 [17]; [25]): 0.235 µM | Kd (HLA-A*11:01 [18]; [25]): ≥ 20 µM | Kd (HLA-B*58:01; [25]): 0.279 µM | Kd (HLA-B*15:17; [25]): 0.0099 µM

MPVMKRYSA
Kd (HLA-B*51:01 [1]; source organism: dengue virus type 4): ≥ 20 µM | Kd (HLA-B*08:01 [3]; source organism: Dengue virus 4 Philippines/H241/1956): 0.00838 µM

VERRLVKVL
Kd (HLA-B*08:01 [12]; [26]): 7 µM | Kd (HLA-B*07:02 [2]; [26]): ≥ 20 µM | Kd (HLA-A*29:02; [26]): ≥ 20 µM | Kd (HLA-B*48:01): ≥ 20 µM | Kd (HLA-A*01:01 [14]; [26]): ≥ 20 µM | Kd (HLA-A*31:01 [15]; [26]): ≥ 20 µM | Kd (HLA-B*57:01; [26]): ≥ 20 µM | Kd (HLA-B*46:01; [26]): ≥ 20 µM | Kd (HLA-B*27:05; [26]): ≥ 20 µM | Kd (HLA-B*44:02): ≥ 20 µM | Kd (HLA-A*03:01 [16]; [26]): ≥ 20 µM | Kd (HLA-A*02:01 [17]; [26]): ≥ 20 µM | Kd (HLA-A*11:01 [18]; [26]): ≥ 20 µM | Kd (HLA-B*58:01; [26]): ≥ 20 µM

YLQAKSQVL
Kd (HLA-B*08:01 [12]; [27]): 0.471 µM | Kd (HLA-A*29:02; [27]): ≥ 20 µM | Kd (HLA-A*68:02 [19]): ≥ 20 µM | Kd (HLA-A*69:01; [27]): ≥ 20 µM | Kd (HLA-A*01:01 [14]; [27]): ≥ 20 µM | Kd (HLA-B*40:01; [27]): ≥ 20 µM | Kd (HLA-A*31:01 [15]; [27]): ≥ 20 µM | Kd (HLA-B*57:01; [27]): ≥ 20 µM | Kd (HLA-B*46:01; [27]): ≥ 20 µM | Kd (HLA-B*27:05; [27]): ≥ 20 µM | Kd (HLA-B*18:01): ≥ 20 µM | Kd (HLA-A*03:01 [16]; [27]): ≥ 20 µM | Kd (HLA-A*11:01 [18]; [27]): ≥ 20 µM | Kd (HLA-A*24:03): ≥ 20 µM | Kd (HLA-B*58:01; [27]): ≥ 20 µM | Kd (HLA-A*26:01 [20]): ≥ 20 µM | Kd (HLA-B*27:03): ≥ 20 µM | Kd (HLA-B*15:17; source organism: Orthohantavirus sinnombreense): ≥ 20 µM | Kd (HLA-B*51:01 [21]): ≥ 20 µM

— the Immune Epitope Database (IEDB)
